Laboratory results published in article PMC3437550.

Target: Torpedo californica nicotinic acetylcholine receptor (Torpedo californica) (UniProt P02710)
Assay: SEC

percent dimer: 72.7%
Substance: Torpedo californica nicotinic acetylcholine receptor (from UniProt P02710 25-461; P02712 25-493; P02714 18-506; P02718 22-522) (complex)
